B1: LINE1-mini (parent)
chain: GGCAGAGCUCAACACAGCGUGGCAAAGUGGCUGUGGCUAGACUGCC

Variants of: B1
Assay: self-cleavage, relative activity (ratio to wild type); higher = more cleavage; in vitro, sequencing; the parent is a self-cleaving ribozyme

Point of comparison: GGCAGAGCUCAACACACGGUGGCAAAGUGGCUGUGGCUAGACUGCC [G17C C18G], self-cleavage 0.07. Against it:
- GGCAGAGCUCAACACAACGUGGCAAAGUGGCUGUGGCUAUACUGCC [G17A G40U] — the same, 0.07
- GGCAGAGCUCAACACACCGUAGCAAAGUGGCUGUGGCUAGACUGCC [G17C G21A] — higher, 1.72
- GGCAGAGCUCAACACACCGUCGCAAAGUGGCUGUGGCUAGACUGCC [G17C G21C] — higher, 0.61
- GGCAGAGCUCAACACACCGUUGCAAAGUGGCUGUGGCUAGACUGCC [G17C G21U] — higher, 1.65
- GGCAGAGCUCAACACAACGUGGCAAAGUGGCUGUGUCUAGACUGCC [G17A G36U] — lower, 0.05
- GGCAGAGCUCAACACAACGUGGCAAAGUGGCUGUGCCUAGACUGCC [G17A G36C] — lower, 0.05
- GGCAGAGCUCAACACAACGUGGCAAAGUGGCUGUGACUAGACUGCC [G17A G36A] — higher, 0.1
- GGCAGAGCUCAACACAACGUGGCAAAGUGGCUGUGGCUAGACUGCG [G17A C46G] — higher, 0.12
- GGCAGAGCUCAACACAACGUGGCAAAGUGGCUGUGGCUAGACUGCU [G17A C46U] — higher, 0.15
- GGCAGAGCUCAACACAACGUGGCAAAGUGGCUGUGGCUAGACUGCA [G17A C46A] — higher, 0.14
- GGCAGAGCUCAACACACCGUGGCAAAGUGGCUGUGGCUAGACUGGC [G17C C45G] — higher, 0.56
- GGCAGAGCUCAACACACCGUGGCAAAGUGGCUGUGGCUAGACUGUC [G17C C45U] — higher, 0.84
- GGCAGAGCUCAACACACCGUGGCAAAGUGGCUGUGGCUAGACUGAC [G17C C45A] — higher, 0.16
- GGCAGAGCUCAACACACCGUGGCAAAGUGGCUGUGGCUAGACUGCA [G17C C46A] — higher, 0.64
- GGCAGAGCUCAACACACCGUGGCAAAGUGGCUGUGGCUAGACUGCG [G17C C46G] — higher, 0.54
- GGCAGAGCUCAACACACCGUGGCAAAGUGGCUGUGGCUAGACUGCU [G17C C46U] — higher, 0.5
- GGCAGAGCUCAACACAACGUGGCAAAGUGGCUGUUGCUAGACUGCC [G17A G35U] — lower, 0.05
- GGCAGAGCUCAACACAACGUGGCAAAGUGGCUGUCGCUAGACUGCC [G17A G35C] — lower, 0.05
- GGCAGAGCUCAACACAACGUGGCAAAGUGGCUGUAGCUAGACUGCC [G17A G35A] — lower, 0.04
- GGCAGAGCUCAACACAACGUGGCAAAGUGGCUGUGGCUAGACUGUC [G17A C45U] — higher, 0.25
- GGCAGAGCUCAACACAACGUGGCAAAGUGGCUGUGGCUAGACUGGC [G17A C45G] — lower, 0.04
- GGCAGAGCUCAACACAACGUGGCAAAGUGGCUGUGGCUAGACUGAC [G17A C45A] — higher, 0.13
- GGCAGAGCUCAACACACCGUGGCAAAGUGGCUGUGGCUAGACUGCC [G17C] — higher, 0.79
- GGCAGAGCUCAACACAACCUGGCAAAGUGGCUGUGGCUAGACUGCC [G17A G19C] — higher, 1.09
- GGCAGAGCUCAACACAACUUGGCAAAGUGGCUGUGGCUAGACUGCC [G17A G19U] — higher, 0.25
- GGCAGAGCUCAACACAACAUGGCAAAGUGGCUGUGGCUAGACUGCC [G17A G19A] — higher, 0.62
- GGCAGAGCUCAACACACCGUGGCAAAGUGGCUGUGGAUAGACUGCC [G17C C37A] — the same, 0.07
- GGCAGAGCUCAACACACCGUGGCAAAGUGGCUGUGGGUAGACUGCC [G17C C37G] — lower, 0.04
- GGCAGAGCUCAACACACCGUGGCAAAGUGGCUGUGGUUAGACUGCC [G17C C37U] — higher, 0.08
- GGCAGAGCUCAACACAACGUUGCAAAGUGGCUGUGGCUAGACUGCC [G17A G21U] — higher, 0.83
- GGCAGAGCUCAACACAACGUCGCAAAGUGGCUGUGGCUAGACUGCC [G17A G21C] — higher, 0.74
- GGCAGAGCUCAACACAACGUAGCAAAGUGGCUGUGGCUAGACUGCC [G17A G21A] — higher, 0.22
- GGCAGAGCUCAACACAACGUGCCAAAGUGGCUGUGGCUAGACUGCC [G17A G22C] — higher, 0.17
- GGCAGAGCUCAACACAACGUGUCAAAGUGGCUGUGGCUAGACUGCC [G17A G22U] — higher, 0.54
- GGCAGAGCUCAACACAACGUGACAAAGUGGCUGUGGCUAGACUGCC [G17A G22A] — higher, 0.32
- GGCAGAGCUCAACACAACGUGGCAAAGUGGCUGUGGCUAGACUACC [G17A G44A] — lower, 0.04
- GGCAGAGCUCAACACAACGUGGCAAAGUGGCUGUGGCUAGACUUCC [G17A G44U] — lower, 0.03
- GGCAGAGCUCAACACAACGUGGCAAAGUGGCUGUGGCUAGACUCCC [G17A G44C] — lower, 0.05
- GGCAGAGCUCAACACACCGUGUCAAAGUGGCUGUGGCUAGACUGCC [G17C G22U] — higher, 1.51
- GGCAGAGCUCAACACACCGUGACAAAGUGGCUGUGGCUAGACUGCC [G17C G22A] — higher, 1.3
- GGCAGAGCUCAACACACCGUGCCAAAGUGGCUGUGGCUAGACUGCC [G17C G22C] — higher, 0.82
- GGCAGAGCUCAACACACUGUGGCAAAGUGGCUGUGGCUAGACUGCC [G17C C18U] — higher, 0.08
- GGCAGAGCUCAACACACAGUGGCAAAGUGGCUGUGGCUAGACUGCC [G17C C18A] — higher, 0.1
- GGCAGAGCUCAACACACCGUGGCAAAGUGGUUGUGGCUAGACUGCC [G17C C31U] — higher, 0.16
- GGCAGAGCUCAACACACCGUGGCAAAGUGGGUGUGGCUAGACUGCC [G17C C31G] — higher, 0.14
- GGCAGAGCUCAACACACCGUGGCAAAGUGGAUGUGGCUAGACUGCC [G17C C31A] — higher, 0.65
- GGCAGAGCUCAACACAACGUGGCAAAGUGGCUGUGGCUAGACCGCC [G17A U43C] — lower, 0.05
- GGCAGAGCUCAACACAACGUGGCAAAGUGGCUGUGGCUAGACGGCC [G17A U43G] — lower, 0.05
- GGCAGAGCUCAACACAACGUGGCAAAGUGGCUGUGGCUAGACAGCC [G17A U43A] — higher, 0.08
- GGCAGAGCUCAACACACCGUGGCAGAGUGGCUGUGGCUAGACUGCC [G17C A25G] — higher, 0.18
- GGCAGAGCUCAACACACCGUGGCAUAGUGGCUGUGGCUAGACUGCC [G17C A25U] — higher, 0.87
- GGCAGAGCUCAACACACCGUGGCACAGUGGCUGUGGCUAGACUGCC [G17C A25C] — higher, 0.51
- GGCAGAGCUCAACACAACGCGGCAAAGUGGCUGUGGCUAGACUGCC [G17A U20C] — higher, 0.12
- GGCAGAGCUCAACACAACGAGGCAAAGUGGCUGUGGCUAGACUGCC [G17A U20A] — higher, 0.1
- GGCAGAGCUCAACACAACGGGGCAAAGUGGCUGUGGCUAGACUGCC [G17A U20G] — the same, 0.07
